Test results from patent US20120149645A1, “COMPOSITIONS AND MODULATION OF MYOCYTE ENHANCER FACTOR 2 (MEF2)” (EMORY UNIVERSITY, priority 2010, published 2012).

Experiments:
ND6 = experiment: In organello de novo transcription assay; assay type: cell-based, mouse; details: mitochondria isolated from SN4741 cells infected with lentivirus for 24 hour
Excerpt: (§1) (A) Mitochondria-targeting MEF2D (Mt2D) and mitochondria-targeting dominant-negative MEF2D (Mt2Ddn), which lacks the transactivation domain (TAD). […] Control indicates the control vector group. (C) Effects of Mt2D or Mt2Ddn on ND6 expression in SN4741 cells. Over-expression of Mt2Ddn in SN4741 cells reduced ND6 but not PPAR-γ coactivator 1 (PGC1) expression by western blotting (n=4, **p<0.01). Control indicates the control vector group. (D) Effects of over-expression of Mt2D or Mt2Ddn on mRNA levels of mitochondria encoded genes. […] Control indicates the control vector group. (E) Effects of Mt2D or Mt2Ddn on mtDNA L-strand transcription initiation in vitro (n=3; **P<0.01). A human mtDNA fragment containing mitochondrial L-strand promoter (LSP) and ND6 gene was used in the in vitro transcription assay. […] (F) Effects of Mt2D or Mt2Ddn on mtDNA de novo transcription in vivo (n=3; **P<0.01). Control (−) is without primers. Control (+) indicates the control vector group.
SN4741 cells were infected with Mt2D or Mt2Ddn lentiviruses for 24 hour. De novo transcription was measured in isolated mitochondria as described previously (46, 47). The mitochondrial fraction was suspended in transcription buffer containing 25 mM sucrose, 75 mM sorbitol, 100 mM KCl, 10 mM K2HPO4, 50 mM EDTA, 5 mM MgCl2, 1 mM ADP, 10 mM glutamate, 2.5 mM malate, and 10 mM Tris-HCl (pH7.4), with 1 mg of BSA per ml. […]

nuclear MEF2 = experiment: MEF2 luciferase reporter assay; assay type: cell-based; details: co-transfected with MEF2 luciferase reporter
Excerpt: Control indicates the group co-tranfected with control vector.
MEF2 luciferase reporter assay was done as described Wang et al., J Biol Chem, 2005, 280:16705-16713. Briefly, cells were transiently transfected with various constructs with MEF2 luciferase reporter plasmid (WT, reporter with wild type MEF2 DNA binding sites; mt, reporter with the MEF2 DNA binding sites mutated) using Lipofectimane 2000 (Invitrogen) following procedures provided by the manufacturer. A β-galactosidase expression plasmid was used to determine the efficiency in each transfection. The total amount of DNA for each transfection was kept constant by using control vectors. Cell lysates were analyzed for luciferase and β-galactosidase activity according to the manufacturer's instructions (Roche, cat. no. 11669893001).

ND6 mRNA = experiment: Real-time PCR of mitochondria-encoded mRNA levels in SN4741 cells; assay type: cell-based, mouse; details: construct over-expressed in SN4741 cells
Excerpt: as §1

SN4741 cells = experiment: Mitochondrial functional assays (ATP, H2O2, membrane potential); assay type: cell-based, mouse; details: over-expression in SN4741 cells
Excerpt: (A) Requirement of mitochondrial MEF2D for complex I activity. […] Control indicates the control vector group. (B) Over-expression of ND6 rescued complex I activity reduced by Mt2Ddn. Control indicates the control vector group. (C) Measurement of various complex activities. […] Control indicates the control vector group. (D) Effects of over-expression of Mt2D or Mt2Ddn on mitochondrial function. Mt2Ddn reduced cellular ATP level and elevated H2O2 production in SN4741 cells (n=4; *p<0.05; **P<0.01). Control indicates the control vector group.
Mitochondrial complex I activity was evaluated initially by blue native-polyacrylamide gel electrophoresis (BN-PAGE) and in-gel activity staining. This assay measures total complex I activity. Rotenone sensitive complex I activity and activities of other mitochondrial complexes were further measured by methods described by Antoni et al., J Biol Chem, 1998, 273:14210-14217. Briefly, parallel assays were performed to measure complex I activity at 340 nm using 2,3-dimethoxy-5-methyl-6-n-decyl-1,4-benzoquinone (DB) (50 μM) as acceptor and NADH (0.8 mM) as donor, in 50 mM Tris (pH 8.0) buffer supplemented with 5 mg/ml BSA either without or with the addition of 4 μM rotenone, which gave total and rotenone insensitive complex I activities, respectively. The difference in value between the two provided a quantified measure of the rotenone-sensitive activity. Mitochondrial membrane potential was detected using a kit (cat. no. 280002) from Stratagene following the procedures provided by the manufacturer. The fluorescent dye JC-1 (5,5′,6,6′-tetrachloro-1,1′,3,3′-tetraethylbenzimidazolyl carbocyanine iodide) stains mitochondria red in a membrane potential dependent manner. Briefly, cells were seeded in 96-well plates at 4×10^4 cells/well with 100 μl culture medium and incubated at 33° C. with 5% CO2. After treatment, 10 μl/well of premixed JC-1 staining solution was added, and the cells were incubated for an additional 30 min under the same conditions. After thorough washes, 100 μl assay buffer was added to each well. Fluorescence signal was detected with excitation and emission at 520 nm and 590 nm, respectively, on a multi-well plate reader (Bio-Tek). Cellular ATP and H202 were measured by Bioluminescent Somatic Cell ATP Assay Kit (Sigma) and Hydrogen Peroxide Assay Kit (Cayman), respectively.

B1: Mt2Ddn: Mitochondria-targeting dominant-negative MEF2D: mouse MEF2D 1-131aa with mitochondria-targeting signal, lacks the transactivation domain (protein, UniProt Q63943 1-131, looked up, fragment)
chain: MGRKKIQIQRITDERNRQVTFTKRKFGLMKKAYELSVLCDCEIALIIFNHSNKLFQYASTDMDKVLLKYTEYNEPHESRTNADIIETLRKKGFNGCDSPEPDGEDSLEQSPLLEDKYRRASEELDGLFRRY
modifications: mitochondria-targeting signal added
de novo transcription of ND6 (ND6): reduced | nuclear MEF2 activity (MEF2 reporter) (nuclear MEF2): did not affect | ND6 mRNA level (ND6 mRNA): clearly reduced | mRNA levels of other mitochondria-encoded proteins (ND6 mRNA): little effect | cellular ATP level (SN4741 cells): clear reduction | hydrogen peroxide production by mitochondria (SN4741 cells): significantly increased | mitochondrial membrane potential (SN4741 cells; JC-1): did not significantly alter
